Measurements from patent US7521047 (GPC BIOTECH, dated 2009).
Residue numbers refer to the chain shown, from its start.

Tests used:
[1] = biological target: T1, human MHC class II DR protein (DRA*0101/DRB1*0401), purified from PRIESS cells (human, UniProt P01903 26-254; P01911 30-266, limits assumed); assay: ELISA, coated antigen, Fab 100 ng/well, read at 370 nm
T1 construct: mature; also called HLA-DR protein; MHCII
T1 MHC II alpha: not shown
T1 MHC II beta: not shown
Protocol: After washing in PBS the anti-human IgG F(ab')_2-peroxidase-conjugate at a 1:10,000 dilution in TBS (supplemented with 5% w/v non-fat drymilk/0.05% v/v Tween 20) was added to each well for 1 h. Final washes were carried out in PBS followed the addition the substrate POD (Roche).

[2] = biological target: T1, human MHC class II DR protein …; assay: SPR (BIAcore), 3 preparations on 3 chips (500, 4000, 3000 RU)
[3] = biological target: T1, human MHC class II DR protein …; assay: SPR (BIAcore), MHCII on CM5 chip
[4] = biological target: chimeric 0401-IE class II molecule on cells of transgenic mice (human/murine chimera); assay: cell-based or functional assay
[5] = biological target: HLA-DR on MHH-CALL-4 cells (human); assay: cell-based or functional assay
BSA = biological target: T2, BSA (bovine, UniProt P02769 25-607); assay: ELISA, purified coated protein, OD at 370 nm minus background
T2 construct: negative control antigen; also called bovine serum albumine

[6] = biological target: T1, human MHC class II DR protein …; assay: BiaCore, IgG4
Protocol: The affinities for anti-HLA antibody fragments of the invention were measured as follows. All measurements were conducted in HBS buffer (20 mM HEPES, 150 mM NaCl, pH 7.4) at a flow rate of 20 µl/min at 25° C. on a BIAcore3000 instrument (Biacore AB, Sweden). MHC class II DR protein (prepared as example 1) was diluted in 100 mM sodium acetate pH 4.5 to a concentration of […], and coupled to a CM5 chip (Biacore AB) using standard EDC-NHS coupling chemistry with subsequent ethanolamine treatment as manufacturers directions. The coating density of MHCII was adjusted to between 500 and 4000 RU. Affinities were measured by injection of 5 different concentrations of the different antibodies and using the standard software of the Biacore instrument. Regeneration of the coupled surface was achieved using 10 mM glycine pH 2.3 and 7.5 mM NaOH.

[7] = biological target: T1, human MHC class II DR protein …; assay: SPR (BIAcore), IgG4 over MHCII on CM5 chip
HLA-DR on MN-60 cells = HLA-DR on MN-60 cells (human); assay: cell-based or functional assay
HLA-DR on LP-1 cells = HLA-DR on LP-1 cells (human); assay: cell-based or functional assay
HLA-DR on NALM-1 cells = HLA-DR on NALM-1 cells (human); assay: cell-based or functional assay
[8] = biological target: HLA-DR on KARPAS-422 cells (human); assay: cell-based or functional assay
HLA-DR on EOL-1 cells = HLA-DR on EOL-1 cells (human); assay: cell-based or functional assay
[9] = biological target: HLA-DR on GRANTA-519 cells (human); assay: cell-based or functional assay
HLA-DR on BJAB cells = HLA-DR on BJAB cells (human); assay: cell-based or functional assay
[10] = biological target: HLA-DR on MHH-PREB-1 cells (human); assay: cell-based or functional assay
HLA-DR on L-363 cells = HLA-DR on L-363 cells (human); assay: cell-based or functional assay
HLA-DR on L-428 cells = HLA-DR on L-428 cells (human); assay: cell-based or functional assay
HLA-DR on HD-MY-Z cells = HLA-DR on HD-MY-Z cells (human); assay: cell-based or functional assay
[11] = biological target: HLA-DR on MHH-CALL-4 cells (human); assay: cell-based or functional assay; remark: listed apart in the source
HLA-DR on DOHH-2 cells = HLA-DR on DOHH-2 cells (human); assay: cell-based or functional assay
[12] = biological target: HLA-DR on KARPAS-299 cells (human); assay: cell-based or functional assay
HLA-DR on HC-1 cells = HLA-DR on HC-1 cells (human); assay: cell-based or functional assay
HLA-DR on L1236 cells = HLA-DR on L1236 cells (human); assay: cell-based or functional assay
HLA-DR on SR-786 cells = HLA-DR on SR-786 cells (human); assay: cell-based or functional assay
HLA-DR on HDLM-2 cells = HLA-DR on HDLM-2 cells (human); assay: cell-based or functional assay
HLA-DR on BONNA-12 cells = HLA-DR on BONNA-12 cells (human); assay: cell-based or functional assay
HLA-DR on RAJI cells = HLA-DR on RAJI cells (human); assay: cell-based or functional assay
HLA-DR on KM-H2 cells = HLA-DR on KM-H2 cells (human); assay: cell-based or functional assay
[13] = biological target: T3, HLA-DR (DRA*0101/DRB1*0401) on PRIESS cells (human, UniProt P01903 26-254; P01911 30-266); assay: cell-based or functional assay
T3 MHC II alpha: not shown
T3 MHC II beta: not shown

HLA-DR on ARH-77 cells = HLA-DR on ARH-77 cells (human); assay: cell-based or functional assay
[14] = biological target: HLA-DR on RPMI-8226 cells (human); assay: cell-based or functional assay
[15] = biological target: T1, human MHC class II DR protein …; assay: SPR (BIAcore), scFv, chip density 500 RU MHCII

T2 sequence (P02769 25-607 limits assumed): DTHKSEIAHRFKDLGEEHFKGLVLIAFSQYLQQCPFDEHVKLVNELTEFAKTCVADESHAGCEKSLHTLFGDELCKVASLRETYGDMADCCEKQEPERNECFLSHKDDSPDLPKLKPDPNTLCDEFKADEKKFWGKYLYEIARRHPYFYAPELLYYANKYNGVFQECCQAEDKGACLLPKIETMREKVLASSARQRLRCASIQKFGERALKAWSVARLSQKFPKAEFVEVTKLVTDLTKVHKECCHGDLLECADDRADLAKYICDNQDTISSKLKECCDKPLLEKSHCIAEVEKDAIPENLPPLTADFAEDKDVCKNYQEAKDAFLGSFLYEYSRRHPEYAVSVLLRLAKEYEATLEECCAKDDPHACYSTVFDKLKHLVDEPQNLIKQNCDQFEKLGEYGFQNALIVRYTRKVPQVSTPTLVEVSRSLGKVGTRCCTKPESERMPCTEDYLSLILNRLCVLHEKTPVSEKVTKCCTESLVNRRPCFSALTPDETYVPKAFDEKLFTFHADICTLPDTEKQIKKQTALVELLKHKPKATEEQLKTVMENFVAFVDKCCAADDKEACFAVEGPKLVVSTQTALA

B1: MS-GPC-8-6 Fab (Fab, V domains shown)
VH: QVQLKESGPALVKPTQTLTLTCTFSGFSLSTSGVGVGWIRQPPGKALEWLALIDWDDDKYYSTSLKTRLTISKDTSKNQVVLTMTNMDPVDTATYYCARSPRYRGAFDYWGQGTLVTVSS
VL: DIVLTQPPSVSGAPGQRVTISCSGSSSNIGSNYVSWYQQLPGTAPKLLIYDNNQRPSGVPDRFSGSKSGTSASLAITGLQSEDEADYYCQSYDYDHYVFGGGTKLTVLG
notes: Fab: VH-CH1 with FLAG tag and STREP tag II, VL-CL; VH residue 1 is Q in Fab
ELISA signal [1]: 1.31
Kd [2]: 0.0586 µM
koff [2]: 0.0055 s⁻¹
kon [2]: 96000 M⁻¹ s⁻¹
Kd [3]: 0.0586 µM
koff [3]: 0.00548 s⁻¹
kon [3]: 96000 M⁻¹ s⁻¹
IC50 of inhibition of IL-2 secretion from T-Hyb 1 cells [4]: 20 nM (half the concentration of the Fab)
Maximum inhibition(%) of IL-2 secretion [4]: 100%
maximum capacity to kill MHH-Call 4 cells [5]: 76%

B2: MS-GPC-8-6-13 IgG4 (antibody, V domains shown)
VH: B1 VH
VL: B1 VL with S26E, S31A, S35T
notes: human IgG4 (constant region EMBL K01316) with lambda constant region (EMBL M18645), from CHO-K1 cells; also called 305D3; IgG form of MS-GPC-8-6-13
binding result (BSA): no binding
Kd [6]: 0.0005 µM
koff [6]: 3.3e-05 s⁻¹
kon [6]: 71000 M⁻¹ s⁻¹
IC50 of inhibition of IL-2 secretion from T-Hyb 1 cells [4]: 0.00042 µM
Maximum inhibition(%) of IL-2 secretion [4]: 100%
Kd [7]: 0.0005 µM
koff [7]: 3e-05 s⁻¹
kon [7]: 70000 M⁻¹ s⁻¹
% Killing by mAb, 50 nM, 4 h (HLA-DR on MN-60 cells): 67%
% Killing by mAb, 50 nM, 4 h (HLA-DR on LP-1 cells): 73%
% Killing by mAb, 50 nM, 4 h (HLA-DR on NALM-1 cells): 65%
% Killing by mAb, 50 nM, 4 h [8]: 71%
% Killing by mAb, 50 nM, 4 h (HLA-DR on EOL-1 cells): 53%
% Killing by mAb, 50 nM, 4 h [9]: 73%
% Killing by mAb, 50 nM, 4 h (HLA-DR on BJAB cells): 64%
% Killing by mAb, 50 nM, 4 h [10]: 11%
% Killing by mAb, 50 nM, 4 h (HLA-DR on L-363 cells): 19%
% Killing by mAb, 50 nM, 4 h (HLA-DR on L-428 cells): 92%
% Killing by mAb, 50 nM, 4 h (HLA-DR on HD-MY-Z cells): 72%
% Killing by mAb, 50 nM, 4 h [11]: 43%
% Killing by mAb, 50 nM, 4 h (HLA-DR on DOHH-2 cells): 53%
% Killing by mAb, 50 nM, 4 h [12]: 76%
% Killing by mAb, 50 nM, 4 h (HLA-DR on HC-1 cells): 93%
% Killing by mAb, 50 nM, 4 h (HLA-DR on L1236 cells): 66%
% Killing by mAb, 50 nM, 4 h (HLA-DR on SR-786 cells): 26%
% Killing by mAb, 50 nM, 4 h (HLA-DR on HDLM-2 cells): 90%
% Killing by mAb, 50 nM, 4 h (HLA-DR on BONNA-12 cells): 86%
% Killing by mAb, 50 nM, 4 h (HLA-DR on RAJI cells): 83%
% Killing by mAb, 50 nM, 4 h (HLA-DR on KM-H2 cells): 87%
% Killing by mAb, 50 nM, 4 h [13]: 74%
% Killing by mAb, 50 nM, 4 h (HLA-DR on ARH-77 cells): 87%
% Killing by mAb, 50 nM, 4 h [14]: 19%

B3: MS-GPC-1 scFv (scFv)
chain: EVQLKESGPALVKPTQTLTLTCTFSGFSLSTSGVGVGWIRQPPGKALEWLALIDWDDDKYYSTSLKTRLTISKDTSKNQVVLTMTNMDPVDTATYYCARQYGHRGGFDHWGQGTLVTVSSAGGGSGGGGSGGGGSGGGGSDIVLTQPPSVSGAPGQRVTISCSGSSSNIGSNYVSWYQQLPGTAPKLLIYDNNQRPSGVPDRFSGSKSGTSASLAITGLQSEDEADYYCQSYDFNESVFGGGTKLTVLG
Kd [15]: 1.5 µM
koff [15]: 0.061 s⁻¹
kon [15]: 41300 M⁻¹ s⁻¹
